Legend:
AS25 = target: T1, AS25 (synthetic construct (Homo sapiens …)); experiment: ITC
T1 chain: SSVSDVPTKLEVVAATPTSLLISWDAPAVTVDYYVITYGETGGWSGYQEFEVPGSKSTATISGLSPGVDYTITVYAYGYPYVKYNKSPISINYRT

L-pY peptide = L-pY peptide (phosphotyrosine (pY) at the fourth residue; 5-carboxyfluorescein on the N-terminus; C-terminal amide); experiment: ITC

B1: synthetic L-Bcr-Abl SH2 domain (domain or fragment)
chain: KKKKKSGVNSLEKHSWYHGPVSRNAAEYLLSSGINGSFLVRESESSPGQRSISLRYEGRVYHYRINTASDGKLYVSSESRFNTLAELVHHHSTVADGLITTLHYPAPKRNK
modifications: biotinylated (position of the biotin not stated in the text shown)
Kd (AS25): 184 nM
Kd (L-pY peptide): 4890 nM

Reference: article PMC9347351 (2022)
